Experimental data: publication doi:10.1101/2022.08.25.505150 (bioRxiv, 2022)

Legend:
[1] = molecular target: 6His-PilC (Streptococcus sanguinis 2908); experiment: SEC-MALS
[2] = molecular target: 6His-PilC (Streptococcus sanguinis 2908); experiment: ITC
SEC-MALS = molecular target: the molecule itself; experiment: SEC-MALS

Molecule: 6His-PilA (from UniProt A0A0B7GNW3 33-164) (domain or fragment)
- stoichiometry N [1]: 1
- Kd [2]: 23.8 nM

Molecule: PilA_(T95A) (from UniProt A0A0B7GNW3 33-164) (domain or fragment)
- % of the wild-type binding (KD ratio to the WT) [2]: 38.3%

B1: 6His-PilA (domain or fragment, Streptococcus sanguinis 2908, UniProt A0A0B7GNW3 33-164, looked up)
chain: DTGQSQTQRMYNYLKAKYTATSGTQLAWGAYLDPVDGNPSSVYAEFDERAHNVDPSTEPIKSTHTFKDGSVAEIEMNGQLVDGLTGPENYNITIKSKSKLAGSNDYYEHIVTFNFDTKGIRSEEGHLRSAQK
- stoichiometry N (SEC-MALS): 2
